Numbered stars: 1 amine (or outer) side, 2 acyl side, 3 side chain; on linkers, the order of the positions; unused ones are H or OH. Bridge positions count the residues as written; N and C are the ends. Side chains are listed from the residue outwards. Ends that are not written are not given here. * marks the point of attachment. C20 diacid = O=C(O)CCCCCCCCCCCCCCCCCCC(=O)*; γGlu = O=C(O)[C@H](CCC(=O)[*:2])N[*:1]; AEEA = NCCOCCOCC(=O)O
T1: human amylin 3(a) receptor (human calcitonin receptor co-expressed with RAMP-3) (human, UniProt P30988 25-474; O60896 24-148, limits assumed)
T1 sequence (looked up) 1: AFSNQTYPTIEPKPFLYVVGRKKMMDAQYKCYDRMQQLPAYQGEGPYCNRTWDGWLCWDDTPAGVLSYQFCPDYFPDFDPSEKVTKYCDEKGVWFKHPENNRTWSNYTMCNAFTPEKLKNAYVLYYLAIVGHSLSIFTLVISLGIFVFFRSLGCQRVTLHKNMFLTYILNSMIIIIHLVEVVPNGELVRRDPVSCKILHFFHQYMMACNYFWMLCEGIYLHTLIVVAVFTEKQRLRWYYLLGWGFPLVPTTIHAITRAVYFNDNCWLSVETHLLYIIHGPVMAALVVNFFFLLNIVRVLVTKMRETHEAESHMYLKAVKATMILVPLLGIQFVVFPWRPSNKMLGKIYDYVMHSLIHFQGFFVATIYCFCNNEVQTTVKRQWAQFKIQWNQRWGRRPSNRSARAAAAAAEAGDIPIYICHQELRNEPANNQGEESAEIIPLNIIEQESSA
T1 sequence (looked up) 2: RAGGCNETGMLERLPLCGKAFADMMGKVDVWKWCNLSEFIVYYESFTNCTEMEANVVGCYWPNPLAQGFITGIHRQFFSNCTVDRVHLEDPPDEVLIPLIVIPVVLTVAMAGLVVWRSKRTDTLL

B1: N^ε1-[2-[2-[2-[[(4S)-4-carboxy-4-(19-carboxynonadecanoylamino)butanoyl]amino]ethoxy]ethoxy]acetyl]-[Arg17,Pro21,Pro27,His34]-h-amylin (peptide)
peptide: K([AEEA-γGlu-C20 diacid])CNTATCATQRLANFLRHSSPNFGAIPSSTNVGHNTY-NH2
modifications: disulfide 2-7; N-terminus assumed
SMILES: CC[C@H](C)[C@H](NC(=O)[C@H](C)NC(=O)CNC(=O)[C@H](Cc1ccccc1)NC(=O)[C@H](CC(N)=O)NC(=O)[C@@H]1CCCN1C(=O)[C@H](CO)NC(=O)[C@H](CO)NC(=O)[C@H](Cc1c[nH]cn1)NC(=O)[C@H](CCCNC(=N)N)NC(=O)[C@H](CC(C)C)NC(=O)[C@H](Cc1ccccc1)NC(=O)[C@H](CC(N)=O)NC(=O)[C@H](C)NC(=O)[C@H](CC(C)C)NC(=O)[C@H](CCCNC(=N)N)NC(=O)[C@H](CCC(N)=O)NC(=O)[C@@H](NC(=O)[C@H](C)NC(=O)[C@@H]1CSSC[C@H](NC(=O)[C@@H](N)CCCCNC(=O)COCCOCCNC(=O)CC[C@H](NC(=O)CCCCCCCCCCCCCCCCCCC(=O)O)C(=O)O)C(=O)N[C@@H](CC(N)=O)C(=O)N[C@@H]([C@@H](C)O)C(=O)N[C@@H](C)C(=O)N[C@@H]([C@@H](C)O)C(=O)N1)[C@@H](C)O)C(=O)N1CCC[C@H]1C(=O)N[C@@H](CO)C(=O)N[C@@H](CO)C(=O)N[C@H](C(=O)N[C@@H](CC(N)=O)C(=O)N[C@H](C(=O)NCC(=O)N[C@@H](Cc1c[nH]cn1)C(=O)N[C@@H](CC(N)=O)C(=O)N[C@H](C(=O)N[C@@H](Cc1ccc(O)cc1)C(N)=O)[C@@H](C)O)C(C)C)[C@@H](C)O
notes: also called compound 76
B2: N^ε1-[2-[2-[2-[[(4S)-4-carboxy-4-(19-carboxynonadecanoylamino)butanoyl]amino]ethoxy]ethoxy]acetyl]-[Arg17,Pro21,Pro27,Pro31,His35]-h-amylin (peptide)
peptide: K([AEEA-γGlu-C20 diacid])CNTATCATQRLANFLRHSSPNFGAIPSSTPVGSHTY-NH2
modifications: disulfide 2-7; N-terminus assumed
SMILES: CC[C@H](C)[C@H](NC(=O)[C@H](C)NC(=O)CNC(=O)[C@H](Cc1ccccc1)NC(=O)[C@H](CC(N)=O)NC(=O)[C@@H]1CCCN1C(=O)[C@H](CO)NC(=O)[C@H](CO)NC(=O)[C@H](Cc1c[nH]cn1)NC(=O)[C@H](CCCNC(=N)N)NC(=O)[C@H](CC(C)C)NC(=O)[C@H](Cc1ccccc1)NC(=O)[C@H](CC(N)=O)NC(=O)[C@H](C)NC(=O)[C@H](CC(C)C)NC(=O)[C@H](CCCNC(=N)N)NC(=O)[C@H](CCC(N)=O)NC(=O)[C@@H](NC(=O)[C@H](C)NC(=O)[C@@H]1CSSC[C@H](NC(=O)[C@@H](N)CCCCNC(=O)COCCOCCNC(=O)CC[C@H](NC(=O)CCCCCCCCCCCCCCCCCCC(=O)O)C(=O)O)C(=O)N[C@@H](CC(N)=O)C(=O)N[C@@H]([C@@H](C)O)C(=O)N[C@@H](C)C(=O)N[C@@H]([C@@H](C)O)C(=O)N1)[C@@H](C)O)C(=O)N1CCC[C@H]1C(=O)N[C@@H](CO)C(=O)N[C@@H](CO)C(=O)N[C@H](C(=O)N1CCC[C@H]1C(=O)N[C@H](C(=O)NCC(=O)N[C@@H](CO)C(=O)N[C@@H](Cc1c[nH]cn1)C(=O)N[C@H](C(=O)N[C@@H](Cc1ccc(O)cc1)C(N)=O)[C@@H](C)O)C(C)C)[C@@H](C)O
notes: also called compound 57
B3: N^ε1-[2-[2-[2-[[(4S)-4-carboxy-4-(19-carboxynonadecanoylamino)butanoyl]amino]ethoxy]ethoxy]acetyl]-[Arg17,Pro21,Pro27,Pro28,Pro34]-h-amylin (peptide)
peptide: K([AEEA-γGlu-C20 diacid])CNTATCATQRLANFLRHSSPNFGAIPPSTNVGPNTY-NH2
modifications: disulfide 2-7; N-terminus assumed
SMILES: CC[C@H](C)[C@H](NC(=O)[C@H](C)NC(=O)CNC(=O)[C@H](Cc1ccccc1)NC(=O)[C@H](CC(N)=O)NC(=O)[C@@H]1CCCN1C(=O)[C@H](CO)NC(=O)[C@H](CO)NC(=O)[C@H](Cc1c[nH]cn1)NC(=O)[C@H](CCCNC(=N)N)NC(=O)[C@H](CC(C)C)NC(=O)[C@H](Cc1ccccc1)NC(=O)[C@H](CC(N)=O)NC(=O)[C@H](C)NC(=O)[C@H](CC(C)C)NC(=O)[C@H](CCCNC(=N)N)NC(=O)[C@H](CCC(N)=O)NC(=O)[C@@H](NC(=O)[C@H](C)NC(=O)[C@@H]1CSSC[C@H](NC(=O)[C@@H](N)CCCCNC(=O)COCCOCCNC(=O)CC[C@H](NC(=O)CCCCCCCCCCCCCCCCCCC(=O)O)C(=O)O)C(=O)N[C@@H](CC(N)=O)C(=O)N[C@@H]([C@@H](C)O)C(=O)N[C@@H](C)C(=O)N[C@@H]([C@@H](C)O)C(=O)N1)[C@@H](C)O)C(=O)N1CCC[C@H]1C(=O)N1CCC[C@H]1C(=O)N[C@@H](CO)C(=O)N[C@H](C(=O)N[C@@H](CC(N)=O)C(=O)N[C@H](C(=O)NCC(=O)N1CCC[C@H]1C(=O)N[C@@H](CC(N)=O)C(=O)N[C@H](C(=O)N[C@@H](Cc1ccc(O)cc1)C(N)=O)[C@@H](C)O)C(C)C)[C@@H](C)O
notes: also called compound 55
B4: N^ε1-[2-[2-[2-[[(4S)-4-carboxy-4-(19-carboxynonadecanoylamino)butanoyl]amino]ethoxy]ethoxy]acetyl]-[Arg17,Pro21,Pro27,Pro31]-h-amylin (peptide)
peptide: K([AEEA-γGlu-C20 diacid])CNTATCATQRLANFLRHSSPNFGAIPSSTPVGSNTY-NH2
modifications: disulfide 2-7; N-terminus assumed
SMILES: CC[C@H](C)[C@H](NC(=O)[C@H](C)NC(=O)CNC(=O)[C@H](Cc1ccccc1)NC(=O)[C@H](CC(N)=O)NC(=O)[C@@H]1CCCN1C(=O)[C@H](CO)NC(=O)[C@H](CO)NC(=O)[C@H](Cc1c[nH]cn1)NC(=O)[C@H](CCCNC(=N)N)NC(=O)[C@H](CC(C)C)NC(=O)[C@H](Cc1ccccc1)NC(=O)[C@H](CC(N)=O)NC(=O)[C@H](C)NC(=O)[C@H](CC(C)C)NC(=O)[C@H](CCCNC(=N)N)NC(=O)[C@H](CCC(N)=O)NC(=O)[C@@H](NC(=O)[C@H](C)NC(=O)[C@@H]1CSSC[C@H](NC(=O)[C@@H](N)CCCCNC(=O)COCCOCCNC(=O)CC[C@H](NC(=O)CCCCCCCCCCCCCCCCCCC(=O)O)C(=O)O)C(=O)N[C@@H](CC(N)=O)C(=O)N[C@@H]([C@@H](C)O)C(=O)N[C@@H](C)C(=O)N[C@@H]([C@@H](C)O)C(=O)N1)[C@@H](C)O)C(=O)N1CCC[C@H]1C(=O)N[C@@H](CO)C(=O)N[C@@H](CO)C(=O)N[C@H](C(=O)N1CCC[C@H]1C(=O)N[C@H](C(=O)NCC(=O)N[C@@H](CO)C(=O)N[C@@H](CC(N)=O)C(=O)N[C@H](C(=O)N[C@@H](Cc1ccc(O)cc1)C(N)=O)[C@@H](C)O)C(C)C)[C@@H](C)O
notes: also called compound 49
B5: N^ε1-[2-[2-[2-[[(4S)-4-carboxy-4-(19-carboxynonadecanoylamino)butanoyl]amino]ethoxy]ethoxy]acetyl]-[Arg17,Pro21,Pro27,Pro34,His35]-h-amylin (peptide)
peptide: K([AEEA-γGlu-C20 diacid])CNTATCATQRLANFLRHSSPNFGAIPSSTNVGPHTY-NH2
modifications: disulfide 2-7; N-terminus assumed
SMILES: CC[C@H](C)[C@H](NC(=O)[C@H](C)NC(=O)CNC(=O)[C@H](Cc1ccccc1)NC(=O)[C@H](CC(N)=O)NC(=O)[C@@H]1CCCN1C(=O)[C@H](CO)NC(=O)[C@H](CO)NC(=O)[C@H](Cc1c[nH]cn1)NC(=O)[C@H](CCCNC(=N)N)NC(=O)[C@H](CC(C)C)NC(=O)[C@H](Cc1ccccc1)NC(=O)[C@H](CC(N)=O)NC(=O)[C@H](C)NC(=O)[C@H](CC(C)C)NC(=O)[C@H](CCCNC(=N)N)NC(=O)[C@H](CCC(N)=O)NC(=O)[C@@H](NC(=O)[C@H](C)NC(=O)[C@@H]1CSSC[C@H](NC(=O)[C@@H](N)CCCCNC(=O)COCCOCCNC(=O)CC[C@H](NC(=O)CCCCCCCCCCCCCCCCCCC(=O)O)C(=O)O)C(=O)N[C@@H](CC(N)=O)C(=O)N[C@@H]([C@@H](C)O)C(=O)N[C@@H](C)C(=O)N[C@@H]([C@@H](C)O)C(=O)N1)[C@@H](C)O)C(=O)N1CCC[C@H]1C(=O)N[C@@H](CO)C(=O)N[C@@H](CO)C(=O)N[C@H](C(=O)N[C@@H](CC(N)=O)C(=O)N[C@H](C(=O)NCC(=O)N1CCC[C@H]1C(=O)N[C@@H](Cc1c[nH]cn1)C(=O)N[C@H](C(=O)N[C@@H](Cc1ccc(O)cc1)C(N)=O)[C@@H](C)O)C(C)C)[C@@H](C)O
notes: also called compound 58

The binders below were run against T1, human amylin 3(a) receptor (human …) (assay: cell-based or functional assay).
In the case of B1, the “Ratio hCT/hAmylin funct. (hCTR EC50 over hAmylin-R EC50)” value is reported as 24.8 and the “hAmylin-R funct. EC50 (pM)” value is reported as 297 pM.
With B2 the “Ratio hCT/hAmylin funct. (hCTR EC50 over hAmylin-R EC50)” value was 35 and the “hAmylin-R funct. EC50 (pM)” value was 89 pM.
B3 was tested, and the “Ratio hCT/hAmylin funct. (hCTR EC50 over hAmylin-R EC50)” value was 10.8 and the “hAmylin-R funct. EC50 (pM)” value was 68 pM.
B4 was tested, and the “Ratio hCT/hAmylin funct. (hCTR EC50 over hAmylin-R EC50)” value was 22.5 and the “hAmylin-R funct. EC50 (pM)” value was 106 pM.
For B5, the “Ratio hCT/hAmylin funct. (hCTR EC50 over hAmylin-R EC50)” value was 21.9 and the “hAmylin-R funct. EC50 (pM)” value was 47 pM.

— patent US20140087995A1 (published 2014)
